# According to patent US11584938B2, “Plant EPSPS mutant containing L195P and S247G mutations and encoding gene and use thereof” (GEVOTO LLC, priority 2017, dated 2023):
# Numbering of substitutions follows the chain as printed. Entries after “also recorded” stand apart in the source; their conditions may differ.
# B1: T3: wheat EPSPS mutant, SEQ ID NO: 20, mutations S269(247)G and P118(101)S (protein)
# chain: MATSVAAPAAPAGAEEVVLQPIREISGAVQLPGSKSLSNRILLLSALSEGTTVVDNLLNSEDVHYMLEALEALGLSVEADKVAKRAVVVGCGGRFPVEKDAKEEVKLFLGNAGTAMRSLTAAVVAAGGNATYVLDGVPRMRERPIGDLVVGLQQLGADVDCFLGTNCPPVRINGKGGLPGGKVKLSGSISSQYLSSLLMAAPLALEDVEIEIIDKLISVPYVEMTLKLMEHFGVTAEHSDSWDRFYIKGGQKYKSPGNAYVEGDASSAGYFLAGAAITGGTVTVEGCGTTSLQGDVKFAEVLEMMGAKVTWTDTSVTVTGPPRQPFGRKHLKAVDVNMNKMPDVAMTLAVVALFADGPTAIRDVASWRVKETERMVAIRTELTKLGATVEEGPDYCIITPPEKLNITAIDTYDDHRMAMAFSLAACAEVPVTIRDPGCTRKTFPNYFDVLSTFVKN
# B2: T1: wheat EPSPS mutant, SEQ ID NO: 16, mutation S269(247)G (protein)
# chain: B1 chain with S118P
# B3: T6: wheat EPSPS mutant, SEQ ID NO: 26, mutations L216(195)P, S269(247)G and P118(101)S (protein)
# chain: B1 chain with L216P
# B4: T5: wheat EPSPS mutant, SEQ ID NO: 24, mutations L216(195)P and S269(247)G (protein)
# chain: B1 chain with S118P, L216P
# B5: T4: wheat EPSPS mutant, SEQ ID NO: 22, mutation L216(195)P (protein)
# chain: B1 chain with S118P, L216P, G269S
# B6: R2: rice EPSPS mutant, SEQ ID NO: 32, merely containing the mutation P116(101)S; control (protein)
# chain: MASNAAAAAAKAEEIVLQPIREISGAVQLPGSKSLSNRILLLSALSEGTTVVDNLLNSEDVHYMLEALKALGLSVEADKVAKRAVVVGCGGKFPVEKDAKEEVQLFLGNAGTAMRSLTAAVTAAGGNATYVLDGVPRMRERPIGDLVVGLKQLGADVDCFLGTECPPVRVKGIGGLPGGKVKLSGSISSQYLSALLMAAPLALGDVEIEIIDKLISIPYVEMTLRLMERFGVKAEHSDSWDRFYIKGGQKYKSPGNAYVEGDASSASYFLAGAAITGGTVTVQGCGTTSLQGDVKFAEVLEMMGAKVTWTDTSVTVTGPPREPYGKKHLKAVDVNMNKMPDVAMTLAVVALFADGPTAIRDVASWRVKETERMVAIRTELTKLGASVEEGPDYCIITPPEKLNITAIDTYDDHRMAMAFSLAACADVPVTIRDPGCTRKTFPNYFDVLSTFVRN
# B7: R1: rice EPSPS mutant, SEQ ID NO: 30, mutation L214(195)P (protein)
# chain: B6 chain with S116P, L214P
# B8: T0: wild-type wheat EPSPS, amino acid sequence SEQ ID NO: 14; control (protein, listed as Triticum aestivum)
# chain: B1 chain with S118P, G269S
# B9: T2: wheat EPSPS mutant, SEQ ID NO: 18, merely containing the mutation P118(101)S; control (protein)
# chain: B1 chain with G269S
# B10: R0: wild-type rice EPSPS, amino acid sequence SEQ ID NO: 28; control (protein, listed as Oryza sativa)
# chain: B6 chain with S116P
# Tested on: double knockout E. coli (EPSPS defective E. coli, EDCE)
# Experiment: growth of EPSPS defective E. coli transformed by the EPSPS gene in M9 culture media containing different glyphosate concentrations
# Assay type: cell-based, E. coli DH5α
# Conditions: not given
# Description: A method for detecting the glyphosate resistance of the soybean EPSPS mutant G1 provided in Example 1 and the soybean EPSPS mutant G3 provided in Example 2 is as follows:
# according to the sequence of the nucleic acid molecule provided in the example, synthesizing the encoding gene that encodes the soybean EPSPS mutant G1 or G3 using a chemical synthesis method, introducing enzyme sites (Pac1 and Sbf1) at two ends thereof, connecting to an expression vector (for example, a pADV5 vector, the structure of which is as shown in FIG. 15) that has undergone the same restriction enzyme digestion treatment under the action of ligase after restriction enzyme digestion, then transforming double knockout E. coli, picking positive colonies after verification, inoculating the positive colonies to M9 culture media containing different glyphosate concentrations for growth, and observing the growth situation of the E. coli.
# The wild-type soybean EPSPS (with an amino acid sequence represented by SEQ ID NO: 2 and an encoding gene sequence represented by SEQ ID NO: 1) and the soybean EPSPS mutant G2 (with an amino acid sequence represented by SEQ ID NO: 6, and a corresponding encoding gene sequence represented by SEQ ID NO: 5) merely containing the mutation P114(101)S were taken as controls.
# In the above, the M9 basal culture medium can be prepared by the following method:
# 5×M9 salt solution: 6.78 g of Na2HPO4, 3.0 g of KH2PO4, 0.5 g of NaCl, and 1.0 g of NH4Cl were weighed, added with ddH2O to 200 ml, and subjected to high-temperature and high-pressure sterilization treatment;
# 20% glucose: 20 g of glucose was weighed, added with 80 ml of ddH2O for dissolving, diluted to 100 ml, and subjected to filtration and sterilization treatment;
# 1.0 M MgSO4: 24.6 g of MgSO4-7H2O was weighed, dissolved with 80 ml of ddH2O, diluted to 100 ml, and subjected to sterilization treatment;
# 1.0 M CaCl2: 11.1 g of CaCl2 was weighed, dissolved with 80 ml of ddH2O, diluted to 100 ml, and subjected to sterilization treatment; and
# 1000 ml of the M9 basal culture media were prepared by adding ddH2O to 200 ml of 5×M9 salt solution, 20 ml of 20% glucose, 2 ml of 1.0 M MgSO4 and 0.1 ml of 1.0 M CaCl2 to make up to 1000 ml.
# In the above, the E. coli used was double knockout E. coli, namely, EPSPS defective E. coli (E. coli DH5α with EPSPS gene and C-P Lyase gene being knocked out, named as EDCE, wherein for a preparation method thereof, reference can be made to a Chinese invention patent with the filing number CN2016103256926).
# The glyphosate resistance of the soybean EPSPS mutant G4 provided in Example 3 and the soybean EPSPS mutant G5 provided in Example 4 was verified with reference to the detection method in Experiment Example 1.
# The wild-type wheat EPSPS (with an amino acid sequence represented by SEQ ID NO: 14, and a corresponding encoding gene sequence represented by SEQ ID NO: 13) and the wheat EPSPS mutant T2 (with an amino acid sequence represented by SEQ ID NO: 18, and a corresponding encoding gene sequence represented by SEQ ID NO: 17) merely containing the mutation P118(101)S were taken as controls to verify the glyphosate resistance of the wheat EPSPS mutants T1 and T3 provided in Example 5 and Example 6, and reference can be made to Experiment Example 1 for the method.
# A method for verifying the glyphosate resistance of the wheat EPSPS mutants T4, T5, and T6 provided in Examples 7-9 is the same as that in Experiment Example 3.
# The wild-type rice EPSPS R0 (with an amino acid sequence represented by SEQ ID NO: 28, and a corresponding encoding gene sequence represented by SEQ ID NO: 27) and the rice EPSPS mutant R2 (with an amino acid sequence represented by SEQ ID NO: 32, and a corresponding encoding gene sequence represented by SEQ ID NO: 31) merely containing the mutation P116(101)S were taken as controls to verify the glyphosate resistance of the rice EPSPS mutants R1 and R3 provided in Examples 10 and 11, and reference can be made to Experiment Example 1 for the method. […]
row,Molecule,glyphosate resistance (overall statement)
1,B1,have glyphosate resistance
2,B2,have glyphosate resistance

# Same assay, conditions: concluded from growth of defective E. coli at 0 mM glyphosate
row,Molecule,EPSPS enzyme activity
1,B3,normal EPSPS enzyme activity
2,B4,normal EPSPS enzyme activity
3,B5,normal EPSPS enzyme activity
4,B6,normal EPSPS enzyme activity
5,B7,normal EPSPS enzyme activity

# Same assay, conditions: culture media containing 0 mM glyphosate
row,Molecule,growth of the E. coli transformed by the EPSPS
1,B8,could grow
2,B3,could grow
3,B1,could grow
4,B4,could grow
5,B2,could grow
6,B5,could grow
7,B9,could grow
8,B10,could grow
9,B6,could grow
10,B7,could grow

# Same assay, conditions: culture media containing 1 mM glyphosate
Molecule,growth of the E. coli transformed by the EPSPS,growth of the transformed E. coli compared with E. coli transformed by the control EPSPS named in the value
B8,substantially could not grow,–
B3,could grow normally,–
B1,could grow normally,–
B4,could grow normally,–
B2,could grow normally,obviously superior to that of the E. coli transformed by T0
B5,could grow normally,–
B9,could grow normally,–

# Same assay, conditions: culture media containing 5 mM glyphosate
Molecule,growth of the E. coli transformed by the EPSPS,growth of the transformed E. coli compared with E. coli transformed by the control EPSPS named in the value
B3,could grow,obviously superior to that of the E. coli transformed by T2
B4,grew obviously,–
B2,did not grow obviously,–
B5,did not grow obviously,–
B9,could grow,–
B10,could not grow,–
B7,could grow normally,–

# Same assay, conditions: culture media containing 10 mM glyphosate
Molecule,growth of the E. coli transformed by the EPSPS,growth of the transformed E. coli compared with E. coli transformed by the control EPSPS named in the value
B1,could grow,obviously superior to that of the E. coli transformed by T2
B9,could grow,–
B10,could not grow,–
B6,could grow,–
B7,grew obviously; also recorded: could grow normally,–

# Same assay, conditions: culture media containing 20 mM glyphosate
Molecule,growth of the E. coli transformed by the EPSPS,growth of the transformed E. coli compared with E. coli transformed by the control EPSPS named in the value
B3,could grow,obviously superior to that of the E. coli transformed by T2
B9,could grow,–
B6,could grow,–
B7,grew obviously,–
